According to patent US20090060924A1 (Eli Lilly, published 2009):

B1: humanized anti-sclerostin monoclonal antibody 89 (antibody, human IgG4 S228P, kappa, V domains shown)
VH: EVQLVQSGAEVKKPGESLKISCKGSDFEIKDYYIHWVRQMPGKGLEWMGQIDAEDGETEYAPRFQGQVTISADKSISTAYLQWSSLKASDTAMYYCAREGYYYDGRDYWYFDVWGQGTTVTVSS
VL: EIVLTQSPATLSLSPGERATLSCSASSSVSYIHWYQQKPGQAPRLLIYSTSELASGIPARFSGSGSGTDFTLTISSLEPEDFAVYYCQQLSHLPLTFGGGTKVEIKR
notes: Full-length humanized antibody; Derived from chimeric parent 789
B2: humanized anti-sclerostin monoclonal antibody 86 (antibody, human IgG4 S228P, kappa, V domains shown)
VH: QVQLVQSGAEVKKPGSSVKVSCKASGYTFTDYFLNWVRQAPGQGLEWMGTIYPYHDGTTYSQKFKGRVTITADKSTSTAYMELSSLRSEDTAVYYCAREEEDGQFDYWGQGTTVTVSS
VL: DIQMTQSPSSLSASVGDRVTITCSASQGIQWYLNWYQQKPGKAPKLLIYYTSSLHSGVPSRFSGSGSGTDFTLTISSLQPEDFATYYCQQHSKLPRTFGGGTKVEIKR
notes: Full-length humanized antibody; Two heavy and two light chains per claim 3
B3: humanized anti-sclerostin monoclonal antibody 88 (antibody, human IgG4 S228P, kappa, V domains shown)
VH: QVQLVQSGAEVKKPGASVKVSCKVSGFPIKDTFQHWVRQAPGKGLEWMGWSDPEIGDTEYASKFQGRVTMTEDTSTDTAYMELSSLRSEDTAVYYCATGDTTYKFDFWGQGTTVTVSS
VL: DIQMTQSPSSLSASVGDRVTITCKASQDVHTAVAWYQQKPGKAPKLLIYWASTRWTGVPSRFSGSGSGTDFTLTISSLQPEDFATYYCQQYSDYPWTFGGGTKVEIKR
notes: Full-length humanized antibody; Derived from chimeric parent 788

Legend:
[1] = biological target: T1, human sclerostin (human, UniProt Q9BQB4 24-213); test: cell-based or functional assay
T1 sequence: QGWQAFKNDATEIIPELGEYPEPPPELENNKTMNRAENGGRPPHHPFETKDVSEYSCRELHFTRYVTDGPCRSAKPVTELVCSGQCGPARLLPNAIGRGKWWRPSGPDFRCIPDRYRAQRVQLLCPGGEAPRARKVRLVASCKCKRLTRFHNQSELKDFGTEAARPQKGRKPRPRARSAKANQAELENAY

[2] = biological target: T2, cynomologous monkey sclerostin (cynomologous monkey); test: cell-based or functional assay
[3] = biological target: T1, human sclerostin; test: KinExA 3000 equilibrium binding in solution, 25 C, 1:1 model
Description: (§1) Equilibrium binding studies between an anti-sclerostin antibody and either human, cynomologous (“cyno”) monkey or rat sclerostin are performed on a KinExA 3000 instrument (Sapidyne Instruments Inc.) under KD-controlled conditions. With this technique, a fixed concentration of antibody below its KD is mixed with various concentration of sclerostin protein and allowed to come to equilibrium. The fraction of free, unbound, antibody remaining in solution is probed by briefly exposing this equibrated mixture to sclerostin-coated beads followed by detection with a fluorescently labeled secondary antibody. Typically 2 μM of an anti-sclerostin antibody to be tested is mixed with varying concentrations of human, cyno, or rat sclerostin starting at 2-50 nM and doing three-fold serial dilutions in binding buffer (1× phosphate buffered saline solution, pH 7.4, 0.02% sodium azide and 1 mg/mL bovine serum albumin) containing 2 pM of the antibody to be tested. These solutions are allowed to reach equilibrium over two days at 25° C. The amount of unbound antibody is probed using human sclerostin-coated azlactone beads (Sapidyne Instruments Inc.). These beads are prepared by reacting 50 mg of dry azlactone beads with 50 mcg/ml human sclerostin in a 50 mM sodium carbonate buffer at pH 9.0-9.6 with overnight rotation. Beads are then allowed to settle and the supernatant is replaced with blocking solution (1 M Tris, pH 8.0, plus 10 mg/mL bovine serum albumin) and rotated for one hour. This bead stock is diluted 20-fold into binding buffer and used within three days. A KinExA 3000 instrument equilibrated at room temperature (ca 25° C.) is used for binding studies. Typically 6.25 mL of the equilibrated antibody/sclerostin solution are drawn over a packed human sclerostin-azlactone bead column at 0.25 mL/minute flow rate then rinsed with running buffer (1× phosphate buffered saline solution, pH 7.4 with 0.02% sodium azide). The fraction of free anti-sclerostin antibody bound to these beads is quantified by measuring fluorescence resulting from an injected labeled secondary antibody (Cy5-labeled goat anti-human Fab′2 antibody). Two replicate samples for each condition are analyzed and KD is determined by fitting data to a 1:1 binding model using KinExA Pro software.

[4] = biological target: T2, cynomologous monkey sclerostin; test: as above
Description: as §1

[5] = biological target: T3, rat sclerostin (rat, UniProt Q99P67 24-213, limits assumed); test: as above
T3 sequence (looked up): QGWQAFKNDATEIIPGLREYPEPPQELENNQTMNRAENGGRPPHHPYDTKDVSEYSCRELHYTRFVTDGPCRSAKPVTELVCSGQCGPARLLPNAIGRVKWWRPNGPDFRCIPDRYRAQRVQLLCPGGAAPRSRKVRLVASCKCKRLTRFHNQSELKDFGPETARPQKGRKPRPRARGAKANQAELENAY
Description: as §1

| Binder | IC50 (nM), bone specific alkaline phosphatase assay in C2C12 cells, using human sclerostin [1] | IC50 (nM), bone specific alkaline phosphatase assay in C2C12 cells, using cyno sclerostin [2] | Kd [3] | Kd [4] | Kd [5] |
| --- | --- | --- | --- | --- | --- |
| B1 | 25.1 nM | 34.4 nM | 0.3 pM | 1.4 pM | 0.4 pM |
| B2 | 25.5 nM | 31.6 nM | 0.6 pM | 1 pM | 0.1 pM |
| B3 | – | 23.7 nM | – | 75 pM | 2.2 pM |
